Reference: the Immune Epitope Database (IEDB)

Biological target: HLA-B*07:02
Test: IEDB peptide-MHC binding, purified MHC/competitive/fluorescence; ≥ and ≤ were set here for values at or beyond the usual limits of such assays
Conditions: source organism: Homo sapiens

IC50 | Sequence
210 nM | AARPATSTL
215 nM | APAYSRAL
176 nM | APKRPPSAF
258 nM | GPRTAALGLL
≥ 219000 nM | IATVDSYVI
3560 nM | LPTSHPKIV
1580 nM | NPNQNKNVAL
228 nM | RPYSNVSNL
926 nM | SPNQARAQAAL
≥ 248000 nM | STTAICATGL
466 nM | TPQSNRPVM
